# Biological target: Biotinylated IL-2Rβ (human) (UniProt P14784)
# Assay: SPR
row,Substance,Kd [nM]
1,IL-15 (1–114) (ligand),438
2,IL-15—IL-15Rα complex (IL-15 co-expressed with IL-15Rα (1–64)),3
